Consider eight molecules from PMC3991886, “Characterization of single-stranded DNA-binding proteins from the psychrophilic bacteria Desulfotalea psychrophila, Flavobacterium psychrophilum, Psychrobacter arcticus, Psychrobacter cryohalolentis, Psychromonas ingrahamii, Psychroflexus torquis, and Photobacterium profundum” (BMC Microbiology, 2014).

Data set [1] addresses Psychromonas ingrahamii single-stranded DNA-binding protein (Psychromonas ingrahamii). The experiment in a line: cross-linking; 0.5% (v/v) glutaraldehyde, 15 min, 25°C, 10, 50 or 100 pmol SSB; quenched with 1 M Tris-HCl pH 8.0; SDS-PAGE (12%).
For data set [2] the target is unchanged. The experiment in a line: SEC; analytical gel filtration, Superdex 200 10/300 GL, 20 mM Tris-HCl pH 7.5, 150 mM NaCl, 10 mM EDTA, 0.5 ml/min; mass from a regression curve of standard proteins. A general note: In gel filtration, larger molecules generally elute earlier.
Data set [3] shares this target. The data set can be described thus: sedimentation in glycerol gradient; linear 15 to 30% (w/v) glycerol gradients in 50 mM Tris-HCl pH 7.5, 0.5 M NaCl, 1 mM EDTA, 5 mM beta-mercaptoethanol; 50 ul of 300 uM SSB; SW 60 rotor, 46,000 rpm, 24 h, 4°C; fractions by SDS-PAGE; compared with standard proteins, EcoSSB and PhaSSB.
For data set [4], the system named is DpsSSB (Desulfotalea psychrophila LSv54 (DSM 12343)). The experiment in a line: fluorescence titration. To be noted: 2-300 mM NaCl, site size 31 ± 2 nt, EMSA: 20 mM Tris-HCl pH 8.0, 100 mM NaCl, 1 mM EDTA, 25 C, 2% agarose in TAE, fluorescence titration: 20 mM Tris-HCl pH 8.0, 1 mM EDTA, 2/100/300 mM NaCl. In general terms: A gel shift assay detects complexes by their altered migration in electrophoresis.

In data set [5] the target is Desulfotalea psychrophila single-stranded DNA-binding protein (Desulfotalea psychrophila). The experiment in a line: cross-linking; 0.5% (v/v) glutaraldehyde, 15 min, 25°C, 10, 50 or 100 pmol SSB; quenched with 1 M Tris-HCl pH 8.0; SDS-PAGE (12%).
Data set [6] has the same target. The data set can be described thus: SEC; analytical gel filtration, Superdex 200 10/300 GL, 20 mM Tris-HCl pH 7.5, 150 mM NaCl, 10 mM EDTA, 0.5 ml/min; mass from a regression curve of standard proteins.
Data set [7] has the same target. The data set can be described thus: sedimentation in glycerol gradient; linear 15 to 30% (w/v) glycerol gradients in 50 mM Tris-HCl pH 7.5, 0.5 M NaCl, 1 mM EDTA, 5 mM beta-mercaptoethanol; 50 ul of 300 uM SSB; SW 60 rotor, 46,000 rpm, 24 h, 4°C; fractions by SDS-PAGE; compared with standard proteins, EcoSSB and PhaSSB.
The target in data set [8] is Psychrobacter arcticus single-stranded DNA-binding protein (Psychrobacter arcticus) (UniProt Q4FR27). The experiment in a line: cross-linking; 0.5% (v/v) glutaraldehyde, 15 min, 25°C, 10, 50 or 100 pmol SSB; quenched with 1 M Tris-HCl pH 8.0; SDS-PAGE (12%).
The target is the same in data set [9]. The data set can be described thus: SEC; analytical gel filtration, Superdex 200 10/300 GL, 20 mM Tris-HCl pH 7.5, 150 mM NaCl, 10 mM EDTA, 0.5 ml/min; mass from a regression curve of standard proteins.
The target is the same in data set [10]. The data set can be described thus: sedimentation in glycerol gradient; linear 15 to 30% (w/v) glycerol gradients in 50 mM Tris-HCl pH 7.5, 0.5 M NaCl, 1 mM EDTA, 5 mM beta-mercaptoethanol; 50 ul of 300 uM SSB; SW 60 rotor, 46,000 rpm, 24 h, 4°C; fractions by SDS-PAGE; compared with standard proteins, EcoSSB and PhaSSB.
In data set [11] the target is Photobacterium profundum single-stranded DNA-binding protein (Photobacterium profundum) (UniProt Q6LM83). The data set can be described thus: cross-linking; 0.5% (v/v) glutaraldehyde, 15 min, 25°C, 10, 50 or 100 pmol SSB; quenched with 1 M Tris-HCl pH 8.0; SDS-PAGE (12%).
Data set [12] shares this target. The data set can be described thus: SEC; analytical gel filtration, Superdex 200 10/300 GL, 20 mM Tris-HCl pH 7.5, 150 mM NaCl, 10 mM EDTA, 0.5 ml/min; mass from a regression curve of standard proteins.
Data set [13] shares this target. The data set can be described thus: sedimentation in glycerol gradient; linear 15 to 30% (w/v) glycerol gradients in 50 mM Tris-HCl pH 7.5, 0.5 M NaCl, 1 mM EDTA, 5 mM beta-mercaptoethanol; 50 ul of 300 uM SSB; SW 60 rotor, 46,000 rpm, 24 h, 4°C; fractions by SDS-PAGE; compared with standard proteins, EcoSSB and PhaSSB.
In data set [14] the target is Psychrobacter cryohalolentis single-stranded DNA-binding protein (Psychrobacter cryohalolentis). The data set can be described thus: cross-linking; 0.5% (v/v) glutaraldehyde, 15 min, 25°C, 10, 50 or 100 pmol SSB; quenched with 1 M Tris-HCl pH 8.0; SDS-PAGE (12%).
The target is the same in data set [15]. The data set can be described thus: SEC; analytical gel filtration, Superdex 200 10/300 GL, 20 mM Tris-HCl pH 7.5, 150 mM NaCl, 10 mM EDTA, 0.5 ml/min; mass from a regression curve of standard proteins.
Data set [16] shares this target. The data set can be described thus: sedimentation in glycerol gradient; linear 15 to 30% (w/v) glycerol gradients in 50 mM Tris-HCl pH 7.5, 0.5 M NaCl, 1 mM EDTA, 5 mM beta-mercaptoethanol; 50 ul of 300 uM SSB; SW 60 rotor, 46,000 rpm, 24 h, 4°C; fractions by SDS-PAGE; compared with standard proteins, EcoSSB and PhaSSB.
Data set [17] deals with Psychroflexus torquis single-stranded DNA-binding protein (Psychroflexus torquis). The experiment in a line: cross-linking; 0.5% (v/v) glutaraldehyde, 15 min, 25°C, 10, 50 or 100 pmol SSB; quenched with 1 M Tris-HCl pH 8.0; SDS-PAGE (12%).
Data set [18] has the same target. The experiment in a line: SEC; analytical gel filtration, Superdex 200 10/300 GL, 20 mM Tris-HCl pH 7.5, 150 mM NaCl, 10 mM EDTA, 0.5 ml/min; mass from a regression curve of standard proteins.
The target is the same in data set [19]. The data set can be described thus: sedimentation in glycerol gradient; linear 15 to 30% (w/v) glycerol gradients in 50 mM Tris-HCl pH 7.5, 0.5 M NaCl, 1 mM EDTA, 5 mM beta-mercaptoethanol; 50 ul of 300 uM SSB; SW 60 rotor, 46,000 rpm, 24 h, 4°C; fractions by SDS-PAGE; compared with standard proteins, EcoSSB and PhaSSB.
Data set [20] concerns the molecule itself. The data set can be described thus: cross-linking; 0.5% (v/v) glutaraldehyde, 15 min, 25°C, 10, 50 or 100 pmol SSB; quenched with 1 M Tris-HCl pH 8.0; SDS-PAGE (12%).
Data set [21] deals with the molecule itself. The data set can be described thus: SEC; analytical gel filtration, Superdex 200 10/300 GL, 20 mM Tris-HCl pH 7.5, 150 mM NaCl, 10 mM EDTA, 0.5 ml/min; mass from a regression curve of standard proteins.

Broadly, the stoichiometry N is the number of molecules, sites or subunits per partner or assembly. Turning to “Psychromonas ingrahamii single-stranded DNA-binding protein (natural protein)”, the stoichiometry N in data set [1] and in [3] was 4 in each case. Moreover, in data set [2], the stoichiometry N (mass monomers) is 4.1.
“TTTTTTTTTTTTTTTTTTTTTTTTTTTTTTTTTTTTTTTTTTTTTTTTTTTTTTTTTTTTTTTTTTTTTTTTTTTT [(dT)76]”: the binding signal (% Trp fluorescence quench at saturation) in data set [4] amounted to 93.
With “Desulfotalea psychrophila single-stranded DNA-binding protein (natural protein)”, the stoichiometry N in [5] was 4; in [6] it was 3.8 mass monomer; in [7], 4.
For “Psychrobacter arcticus single-stranded DNA-binding protein (from UniProt Q4FR27 1-213) (natural protein)”, the stoichiometry N in data set [8] and in data set [10] was 4 throughout. This molecule also displayed a stoichiometry N (mass monomers) in data set [9] of 4.1.
“Photobacterium profundum single-stranded DNA-binding protein (from UniProt Q6LM83 1-187) (natural protein)”: the stoichiometry N in data set [11] and in [13] was 4 in each case. Further, in [12], the stoichiometry N (mass monomers) was determined as 4.2.
Turning to “Psychrobacter cryohalolentis single-stranded DNA-binding protein (natural protein)”, the stoichiometry N in [14] and in data set [16] was 4 each time. The stoichiometry N (mass monomers) in [15] worked out at 4.1.
In the case of “Psychroflexus torquis single-stranded DNA-binding protein (natural protein)”, the stoichiometry N in [17] and in data set [19] was 4 each time. Also, the stoichiometry N (mass monomers) in [18] came out at 4.2.

B1: Flavobacterium psychrophilum single-stranded DNA-binding protein (natural protein)
chain: MGNGTLNKVMLIGHLGEDIKMHYFDGGNCIGRFPLATNEIYINKSTNEKITSTEWHNVVVRNKAAEICEKYLSKGDKIYVEGRIKSRQWQAEDGTVKYTTEIQVTEFTFLNTKKDSEIVKTASEAPKTTSFDSTVENDLPF
notes: SSB of Flavobacterium psychrophilum JIP02/86 (LMG 13180), 140 amino acid residues including the N-terminal methionine, 15.9 kDa monomer; Cloned in pBAD/myc-HisA between NcoI and HindIII; the reverse primer carries the gene's stop codon, so the vector's C-terminal myc-His tag is probably not on the protein (surmised); The forward primer has two G that are not complementary to the gene, which adds …
As to B1, the “stoichiometry N” value turned out to be 4 in [20] and 4.4 mass monomer in [21].
